Measured values reported in US20070078096A1, “Buffered drug formulations for transdermal electrotransport delivery” (priority 1997, published 2007).

Test: hGH stability in HEC gel at 32° C. (RP, SEC, IE HPLC)
Format: physicochemical
Settings: for hGH remaining intact: HEC gel, 32° C., after 6 hours
Description: A sufficient quantity of His-Gly from BACHEM Bioscience was added to distilled water to make a 12.5 mM buffer solution having a pH of 6.75. A human growth hormone (hGH) formulation obtained from BresaGen contained growth hormone, mannitol and glycine in the following proportions: 1:5:1 (w/w). The original hGH formulation was subjected to purification (diafiltration against 12.5 mM His-Gly buffer to remove the mannitol and glycine) and the hGH concentration was adjusted to about 20 mg/ml via ultrafiltration.
Aliquots of 250 μl of the resulting hGH stock solution were placed into Eppendorf tubes, each containing 5 mg (2%) of hydroxyethyl cellulose (HEC) as a gelling agent and the samples were carefully mixed. After gelation, the samples were tested for stability at body temperature. The samples were warmed to 32° C. (ie, skin temperature) and assayed at 0, 1, 2, 3, 4, 5, and 6 hours to determine the percent of hGH remaining intact in the gel. hGH from the gels was extracted by dissolving the gel in 25 ml of His-Gly buffer. All hGH samples were analyzed by reverse-phase high performance liquid chromatography (RP), size-exclusion high performance liquid chromatography (SEC), and ion-exchange high performance liquid chromatography (IE) to determine percentage of intact hGH remaining (%LS in FIG. 9). The percent of hGH remaining was calculated by measuring the concentration of the hGH (as determined using one of three high performance liquid chromatography methods) and dividing that by the initial hGH concentration.
As a comparison, hGH stability studies were run under identical conditions to those described above, except histidine buffer was substituted for His-Gly.

[1] = His-Gly buffered hGH gel stored at 32° C.

Question: Which hGH remaining intact (His-Gly buffer 12.5 mM) does the source give for “hGH: human growth hormone formulation obtained from BresaGen, diafiltered against buffer, about 20 mg/ml in 2% HEC gel” here?
Answer: The hGH remaining intact was “about 80%”.

Question: And the degradation products [1]?
Answer: Its degradation products is “No extra degradation products were discovered”.

Question: And the “loss of protein through degradation” value [1]?
Answer: Its value is “no significant loss of protein through degradation”.

Question: What about the hGH remaining intact (histidine buffer) of the same substance?
Answer: Its hGH remaining intact is “approximately 50%”.
